Assay results published in publication PMC3578133 (Cancer research, 2012).

B1: recombinant GST-tagged HDAC4 (amino acid 627-1085) (domain or fragment, human, UniProt P56524 627-1084, looked up)
chain: LSRAQSSPASATFPVSVQEPPTKPRFTTGLVYDTLMLKHQCTCGSSSSHPEHAGRIQSIWSRLQETGLRGKCECIRGRKATLEELQTVHSEAHTLLYGTNPLNRQKLDSKKLLGSLASVFVRLPCGGVGVDSDTIWNEVHSAGAARLAVGCVVELVFKVATGELKNGFAVVRPPGHHAEESTPMGFCYFNSVAVAAKLLQQRLSVSKILIVDWDVHHGNGTQQAFYSDPSVLYMSLHRYDDGNFFPGSGAPDEVGTGPGVGFNVNMAFTGGLDPPMGDAEYLAAFRTVVMPIASEFAPDVVLVSSGFDAVEGHPTPLGGYNLSARCFGYLTKQLMGLAGGRIVLALEGGHDLTAICDASEACVSALLGNELDPLPEKVLQQRPNANAVRSMEKVMEIHSKYWRCLQRTTSTAGRSLIEAQTCENEEAETVTAMASLSVGVKPAEKRPDEEPMEEEPPL
B2: human full length N-terminal GST-tagged HDAC4 (natural protein, UniProt P56524 1-1084, looked up)
chain: MSSQSHPDGLSGRDQPVELLNPARVNHMPSTVDVATALPLQVAPSAVPMDLRLDHQFSLPVAEPALREQQLQQELLALKQKQQIQRQILIAEFQRQHEQLSRQHEAQLHEHIKQQQEMLAMKHQQELLEHQRKLERHRQEQELEKQHREQKLQQLKNKEKGKESAVASTEVKMKLQEFVLNKKKALAHRNLNHCISSDPRYWYGKTQHSSLDQSSPPQSGVSTSYNHPVLGMYDAKDDFPLRKTASEPNLKLRSRLKQKVAERRSSPLLRRKDGPVVTALKKRPLDVTDSACSSAPGSGPSSPNNSSGSVSAENGIAPAVPSIPAETSLAHRLVAREGSAAPLPLYTSPSLPNITLGLPATGPSAGTAGQQDAERLTLPALQQRLSLFPGTHLTPYLSTSPLERDGGAAHSPLLQHMVLLEQPPAQAPLVTGLGALPLHAQSLVGADRVSPSIHKLRQHRPLGRTQSAPLPQNAQALQHLVIQQQHQQFLEKHKQQFQQQQLQMNKIIPKPSEPARQPESHPEETEEELREHQALLDEPYLDRLPGQKEAHAQAGVQVKQEPIESDEEEAEPPREVEPGQRQPSEQELLFRQQALLLEQQRIHQLRNYQASMEAAGIPVSFGGHRPLSRAQSSPASATFPVSVQEPPTKPRFTTGLVYDTLMLKHQCTCGSSSSHPEHAGRIQSIWSRLQETGLRGKCECIRGRKATLEELQTVHSEAHTLLYGTNPLNRQKLDSKKLLGSLASVFVRLPCGGVGVDSDTIWNEVHSAGAARLAVGCVVELVFKVATGELKNGFAVVRPPGHHAEESTPMGFCYFNSVAVAAKLLQQRLSVSKILIVDWDVHHGNGTQQAFYSDPSVLYMSLHRYDDGNFFPGSGAPDEVGTGPGVGFNVNMAFTGGLDPPMGDAEYLAAFRTVVMPIASEFAPDVVLVSSGFDAVEGHPTPLGGYNLSARCFGYLTKQLMGLAGGRIVLALEGGHDLTAICDASEACVSALLGNELDPLPEKVLQQRPNANAVRSMEKVMEIHSKYWRCLQRTTSTAGRSLIEAQTCENEEAETVTAMASLSVGVKPAEKRPDEEPMEEEPPL

What was measured:
[1] = molecular target: T1, recombinant full length flag-tagged N-CoR (amino-acid 1-2440) (human, UniProt O75376 1-2440); experiment: co-IP
[2] = molecular target: T1, recombinant full length flag-tagged …; experiment: SPR

T1 sequence (O75376 whole entry): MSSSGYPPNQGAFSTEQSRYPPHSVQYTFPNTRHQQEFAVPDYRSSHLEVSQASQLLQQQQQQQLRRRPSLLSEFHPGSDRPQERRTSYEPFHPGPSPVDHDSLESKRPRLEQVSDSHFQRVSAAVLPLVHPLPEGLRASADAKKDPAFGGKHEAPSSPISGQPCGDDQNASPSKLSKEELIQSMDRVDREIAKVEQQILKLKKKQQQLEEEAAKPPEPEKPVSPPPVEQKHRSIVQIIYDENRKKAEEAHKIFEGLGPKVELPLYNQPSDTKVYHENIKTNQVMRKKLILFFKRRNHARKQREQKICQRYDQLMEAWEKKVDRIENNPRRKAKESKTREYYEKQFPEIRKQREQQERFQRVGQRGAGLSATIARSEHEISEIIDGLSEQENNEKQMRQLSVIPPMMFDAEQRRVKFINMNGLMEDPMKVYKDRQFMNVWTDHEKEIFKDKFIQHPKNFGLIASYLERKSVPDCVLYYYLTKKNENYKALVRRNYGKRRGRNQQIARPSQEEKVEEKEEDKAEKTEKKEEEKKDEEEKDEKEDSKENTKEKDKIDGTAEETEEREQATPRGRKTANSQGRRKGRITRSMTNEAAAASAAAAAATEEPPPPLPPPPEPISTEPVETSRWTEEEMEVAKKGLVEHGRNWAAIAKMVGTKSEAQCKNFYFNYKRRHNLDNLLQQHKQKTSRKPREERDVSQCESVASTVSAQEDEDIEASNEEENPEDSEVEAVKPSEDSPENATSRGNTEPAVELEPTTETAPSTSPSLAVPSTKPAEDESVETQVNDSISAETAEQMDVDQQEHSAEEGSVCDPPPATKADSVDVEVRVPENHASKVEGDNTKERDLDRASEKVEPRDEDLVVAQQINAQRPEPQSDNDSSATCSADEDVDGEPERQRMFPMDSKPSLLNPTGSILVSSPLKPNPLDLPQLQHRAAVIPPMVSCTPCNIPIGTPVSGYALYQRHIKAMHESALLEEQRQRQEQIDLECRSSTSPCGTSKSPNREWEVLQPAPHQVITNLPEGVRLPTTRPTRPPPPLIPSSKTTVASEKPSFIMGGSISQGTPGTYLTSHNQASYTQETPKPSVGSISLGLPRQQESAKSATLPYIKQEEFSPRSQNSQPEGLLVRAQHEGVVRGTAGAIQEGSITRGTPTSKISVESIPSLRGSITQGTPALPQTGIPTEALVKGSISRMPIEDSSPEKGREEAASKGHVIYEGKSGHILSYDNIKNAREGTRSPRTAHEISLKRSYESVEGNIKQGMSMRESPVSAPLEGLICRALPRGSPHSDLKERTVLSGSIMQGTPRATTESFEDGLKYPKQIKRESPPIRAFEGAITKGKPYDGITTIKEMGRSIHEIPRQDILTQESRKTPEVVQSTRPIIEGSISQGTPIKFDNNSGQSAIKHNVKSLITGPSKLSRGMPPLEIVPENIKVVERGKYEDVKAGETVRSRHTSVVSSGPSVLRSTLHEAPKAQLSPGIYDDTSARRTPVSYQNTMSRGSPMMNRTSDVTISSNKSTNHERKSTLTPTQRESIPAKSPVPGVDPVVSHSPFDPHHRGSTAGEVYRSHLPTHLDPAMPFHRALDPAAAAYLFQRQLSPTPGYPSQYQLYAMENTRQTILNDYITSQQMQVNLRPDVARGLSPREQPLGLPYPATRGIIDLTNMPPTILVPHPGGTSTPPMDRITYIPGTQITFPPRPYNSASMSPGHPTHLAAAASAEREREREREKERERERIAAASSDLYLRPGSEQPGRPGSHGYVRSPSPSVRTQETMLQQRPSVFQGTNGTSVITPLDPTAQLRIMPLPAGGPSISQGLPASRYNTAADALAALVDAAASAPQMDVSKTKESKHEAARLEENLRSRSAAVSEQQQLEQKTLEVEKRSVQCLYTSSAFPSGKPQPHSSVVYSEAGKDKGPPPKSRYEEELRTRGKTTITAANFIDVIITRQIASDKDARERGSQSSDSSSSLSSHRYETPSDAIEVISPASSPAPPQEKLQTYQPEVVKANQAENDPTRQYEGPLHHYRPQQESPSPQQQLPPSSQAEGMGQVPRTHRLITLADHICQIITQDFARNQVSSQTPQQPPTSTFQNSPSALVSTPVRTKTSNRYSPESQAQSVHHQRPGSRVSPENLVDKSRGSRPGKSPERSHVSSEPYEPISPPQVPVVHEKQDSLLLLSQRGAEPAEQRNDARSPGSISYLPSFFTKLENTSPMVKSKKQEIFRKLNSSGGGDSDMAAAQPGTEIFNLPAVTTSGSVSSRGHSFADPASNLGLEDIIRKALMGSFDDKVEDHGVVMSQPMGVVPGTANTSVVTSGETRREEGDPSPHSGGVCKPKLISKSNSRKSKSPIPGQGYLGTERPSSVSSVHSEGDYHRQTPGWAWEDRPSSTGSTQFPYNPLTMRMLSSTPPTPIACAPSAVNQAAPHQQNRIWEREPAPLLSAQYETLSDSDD

| Binder | binding result [1] | Kd [2] [nM] |
| --- | --- | --- |
| B1 | binds | – |
| B2 | – | 1 |
